Assay results: patent EP0155825A2, “Novel choline derivatives” (NITTO BOSEKI CO., LTD., priority 1984, dated 1985)

Substrate: C[N+](C)(C)CCOC(=O)c1ccc(O)c(O)c1
Experiment: Km of the substrate for cholinesterase (UV method, absorbance decrease at 340 nm)
Format: biochemical
Conditions: other: 50 mM TRIS-maleate buffer (pH 8.20); compound as substrate of Ch-E; pH 8.2; 37.0 °C
Excerpt: Fig. 1 represents UV spectra of 3,4-dihydroxybenzoylcholine iodide (hereinafter referred to briefly as DHBCI) and 3,4-dihydroxybenzoic acid. When DHBCI is hydrolyzed by the action of Ch-E, there are formed choline and 3,4-dihydroxybenzoic acid. […] Therefore, when DHBCI, a novel compound according to the present invention, is used as substrate in the assay of enzymatic activity of Ch-E and the reaction is traced through the absorbance at a wavelength of 340-360 nm, it is possible to follow precisely the decrease in substrate DHBCI. In the previously mentioned method of W. Kalow, since the measurement is done at a shorter wavelength of 240 nm, the initial absorption is interfered with by the blood constituents, whereas at a wavelength of 340-360 nm, the interference is very little and the conditions of reaction can be set up more easily. […]
The assay was performed by adjusting the substrate concentration to 0.25 mM with a 50 mM TRIS-maleate buffer (pH 8.20), preheating for about 5 minutes 2.0 mt of-the adjusted solution to 37°C, admixing the preheated solution with 200 µℓ of a serum, and immediately measuring the absorbance decrease at 340 nm of the mixture at 37°C. […] The activity of Ch-E was calculated from the following equation: [formula] • ^* ΔO.D.: Absorbance change per minute at a wavelength of 340 nm. • ^** Molar absorbance at 340 nm: 2960

B1: cholinesterase (enzyme code number of 3.1.1.8; referred to briefly as Ch-E) (Homo sapiens) (protein)
chain: EDDIIIATKNGKVRGMNLTVFGGTVTAFLGIPYAQPPLGRLRFKKPQSLTKWSDIWNATKYANSCCQNIDQSFPGFHGSEMWNPNTDLSEDCLYLNVWIPAPKPKNATVLIWIYGGGFQTGTSSLHVYDGKFLARVERVIVVSMNYRVGALGFLALPGNPEAPGNMGLFDQQLALQWVQKNIAAFGGNPKSVTLFGESAGAASVSLHLLSPGSHSLFTRAILQSGSFNAPWAVTSLYEARNRTLNLAKLTGCSRENETEIIKCLRNKDPQEILLNEAFVVPYGTPLSVNFGPTVDGDFLTDMPDILLELGQFKKTQILVGVNKDEGTAFLVYGAPGFSKDNNSIITRKEFQEGLKIFFPGVSEFGKESILFHYTDWVDDQRPENYREALGDVVGDYNFICPALEFTKKFSEWGNNAFFYYFEHRSSKLPWPEWMGVMHGYEIEFVFGLPLERRDNYTKAEEILSRSIVKRWANFAKYGNPNETQNNSTSWPVFKSTEQKYLTLNTESTRIMTKLRAQQCRFWTSFFPKVLEMTGNIDEAEWEWKAGFHRWNNYMMDWKNQFNDYTSKKESCVGL
notes: admixing the preheated solution with 200 µℓ of a serum; tissue Nissui Seiyaku Co. consera I; host or cells: serum (commercial control serum)
Which Km does the source give for B1 here?
Its Km is 26 µM.
